According to patent publication US20200055951A1 (DONG A UNIVERSITY RESEARCH FOUNDATION FOR INDUSTRY ACADEMY …, published 2020):
Numbering of substitutions follows the chain as printed.

Key:
PAUF-His protein = target: T1, PAUF-His protein (UniProt Q96DA0 17-172, limits assumed); assay: indirect ELISA titration on PAUF-His, anti-human Fc-HRP; column head Kd (10^-9 M)
T1 construct: not shown: His tag
T1 sequence (looked up): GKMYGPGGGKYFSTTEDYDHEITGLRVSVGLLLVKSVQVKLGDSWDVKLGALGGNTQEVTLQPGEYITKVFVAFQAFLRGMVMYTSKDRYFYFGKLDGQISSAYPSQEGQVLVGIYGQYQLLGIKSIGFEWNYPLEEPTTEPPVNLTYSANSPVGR
Experimental: Specifically, indirect ELISA was performed. An immuno-plate was coated with the PAUF-His protein and treated with each antibody at different concentrations, and the results were analyzed using the anti-human Fc-HRP capable of recognizing the constant region of human antibody as the secondary antibody. In particular, as the concentration of each antibody increases, the OD value increases.

[1] = target: T2, pancreatic adenocarcinoma upregulated factor (PAUF) protein (UniProt Q96DA0 17-172, limits assumed); assay: indirect ELISA, PAUF-coated plate, HRP-labeled anti-mouse antibody
T2 construct: no tag is mentioned there; also called Antigen PAUF
T2 sequence (looked up): T1 sequence (looked up)
Experimental: Specifically, the affinity of the antigen-antibody was tested using indirect ELISA. The PAUF-coated immuno-plate was treated with the four kinds of antibodies (2H2, 4E6, 11 G6, and 20C5) at different concentrations and the OD values were measured using the HRP-labeled anti-mouse antibody. In particular, as the OD value becomes higher, the affinity of the antibody for the PAUF becomes higher. Additionally, for the measurement of the nonspecific binding of an anti-PAUF mouse monoclonal antibody, which has a high affinity for PAUF, to other antigenic proteins, the immuno-plate was coated with PAUF and unspecified antigens so as to perform indirect ELISA.

[2] = target: T2, pancreatic adenocarcinoma upregulated …; assay: SPR, PAUF immobilized, antibody in flow at different concentrations
Experimental: Specifically, the antigen-antibody binding affinity was measured using the SPR method. Antigen PAUF was immobilized on the surface of a thin metal film and the antibody was diluted at different concentrations and allowed to pass through the metal surface. The antigen-antibody binding affinity was measured by measuring the time required for binding and dissociation between antigens and antibodies.

B1: cPMAb22 (chimeric antibody of 2H2) (antibody, V domains shown)
VH: QVQLKQSGAELVRPGALVKLSCKASGFNIKDYYMHWVKQRPEQGLEWIGWIDPENGNTIYDPKFQGKASITADTSSNTAYLQLSSLTSEDTAVYYCARRAITTATAWFAYWGQGTLVTVSA
VL: DIVMTQSPSSLAVSAGEKVTMSCKSSQSLLNSRTRKNYLAWYQQKPGQSPKLLIYWASTRESGVPDRFTGSGSGTDFTLTISSVQAEDLAVYYCKQSYNLYTFGAGTKLELK
notes: Mouse variable regions of 2H2 on human heavy and light chain constant regions (kappa light chain implied by the anti-human kappa secondary antibody); Expressed in HEK293 cells
In the case of B1, the Kd (PAUF-His protein) is reported as 0.01 nM.

B2: 2H2 (anti-PAUF protein mouse antibody) (antibody, V domains shown)
VH: B1 VH
VL: B1 VL
notes: Mouse monoclonal antibody; also called 21-12 [sic]
With B2 the “EC50 (read off the curve)” value [1] was about 0.05 µg/mL.

B3: cPMAb205 (chimeric antibody of 20C5) (antibody, V domains shown)
VH: QVQLKESGAELVRPGALVKLSCKASGFNIKDYYMHWVKQRPEQGLEWIGWIDPEHGNTIYDPKFQGKASLTADTSSNTAYLQLSSLTSEDTAVYYCARRGWLPAWFAYWGQGTLVTVSA
VL: B1 VL with M21L, A105G, L111I
notes: Mouse variable regions of 20C5 on human heavy and light chain constant regions (kappa light chain implied by the anti-human kappa secondary antibody); Expressed in HEK293 cells
With B3 the Kd (PAUF-His protein) was 0.03 nM.

B4: 20C5 (anti-PAUF protein mouse antibody) (antibody, V domains shown)
VH: B3 VH
VL: B1 VL with M21L, A105G, L111I
notes: Mouse monoclonal antibody
B4 was tested, and the “EC50 (read off the curve)” value [1] was about 0.02 µg/mL.

B5: hPMAb22 (anti-PAUF protein humanized antibody) (antibody, V domains shown)
VH: QVQLVQSGAEVKKPGASVKVSCKASGFNIKDYYMHWVRQAPGQGLEWMGWIDPENGNTNYAQKFQGRVTMTRDTSISTAYMELSRLRSDDTAVYYCARRAITTATAWFAYWGQGTLVTVSS
VL: DIVMTQSPDSLAVSLGERATINCKSSQSLLNSRTRKNYLAWYQQKPGQPPKLLIYWASTRESGVPDRFSGSGSGTDFTLTISSLQAEDVAVYYCKQSYNLYTFGQGTKVEIK
notes: CDR-grafted humanized antibody with human constant regions; Expressed in HEK293 cells; also called 2H2-VH1/VL1; 2H2-VH1-VL1
Binder B5 has a Kd [2] of 0.194 nM.
